Results as given in the array DNA melting data of Ke et al..

assay: melting temperature; melt of duplexes; conditions: sodium 0.0675 M; strand 1 µM

Substance | Tm [°C]
CGACGTGCCCAATGTGCTG+CAGCACATGGAGCACGTCG ((((((((.(.((((((((+)))))))).).)))))))) | 55.5
CGACGTGCTGTATGTGCTG+CAGCACATCGGGCACGTCG ((((((((...((((((((+))))))))...)))))))) | 50.6
CGACGTGCTTCATGTGCTG+CAGCACATATCGCACGTCG ((((((((...((((((((+))))))))...)))))))) | 47.5
CGACGTGCATCATGTGCTG+CAGCACATAACGCACGTCG ((((((((.(.((((((((+)))))))).).)))))))) | 48.3
CGACGTGCCCTATGTGCTG+CAGCACATCATGCACGTCG ((((((((...((((((((+))))))))...)))))))) | 46.8
CGACGTGCAAGATGTGCTG+CAGCACATGATGCACGTCG (((((((((..((((((((+))))))))..))))))))) | 52.3
CGACGTGCCTAATGTGCTG+CAGCACATAGCGCACGTCG ((((((((...((((((((+))))))))...)))))))) | 50.3
CGACGTGCCGGATGTGCTG+CAGCACATGCAGCACGTCG ((((((((.(.((((((((+)))))))).).)))))))) | 53.1
CGACGTGCCAAATGTGCTG+CAGCACATTCTGCACGTCG ((((((((..(((((((((+)))))))))..)))))))) | 51.5
CGACGTGCCTGATGTGCTG+CAGCACATATAGCACGTCG ((((((((...((((((((+))))))))...)))))))) | 49.8
CGACGTGCCGTATGTGCTG+CAGCACATTCAGCACGTCG ((((((((.(.((((((((+)))))))).).)))))))) | 50.1
CGACGTGCAACATGTGCTG+CAGCACATTTCGCACGTCG ((((((((.(.((((((((+)))))))).).)))))))) | 49
CGACGTGCTTCATGTGCTG+CAGCACATTAGGCACGTCG ((((((((.(.((((((((+)))))))).).)))))))) | 50
CGACGTGCACAATGTGCTG+CAGCACATTTAGCACGTCG ((((((((..(((((((((+)))))))))..)))))))) | 48.3
CGACGTGCTTTATGTGCTG+CAGCACATTTGGCACGTCG ((((((((...((((((((+))))))))...)))))))) | 50.1
CGACGTGCCACATGTGCTG+CAGCACATTAAGCACGTCG ((((((((...((((((((+))))))))...)))))))) | 48.6
CGACGTGCCTCATGTGCTG+CAGCACATAGAGCACGTCG ((((((((...((((((((+))))))))...)))))))) | 51.6
CGACGTGCCTTATGTGCTG+CAGCACATACGGCACGTCG (((((((((.(((((((((+))))))))).))))))))) | 56.1

Substance | Tm [°C]
CGACGTGCGTAATGTGCTG+CAGCACATAACGCACGTCG ((((((((((.((((((((+)))))))).)))))))))) | 59.1
CGACGTGCGTTATGTGCTG+CAGCACATGACGCACGTCG ((((((((((.((((((((+)))))))).)))))))))) | 58.9
CGACGTGCGGGATGTGCTG+CAGCACATCATGCACGTCG ((((((((..(((((((((+)))))))))..)))))))) | 57
CGACGTGCTACATGTGCTG+CAGCACATTAGGCACGTCG ((((((((...((((((((+))))))))...)))))))) | 50.5
CGACGTGCTACATGTGCTG+CAGCACATACGGCACGTCG ((((((((...((((((((+))))))))...)))))))) | 48.8
CGACGTGCTCTATGTGCTG+CAGCACATACTGCACGTCG ((((((((..(((((((((+)))))))))..)))))))) | 49.5
CGACGTGCCAGATGTGCTG+CAGCACATCATGCACGTCG ((((((((..(((((((((+)))))))))..)))))))) | 53.4
CGACGTGCGCTATGTGCTG+CAGCACATTGCGCACGTCG ((((((((((.((((((((+)))))))).)))))))))) | 61
CGACGTGCACAATGTGCTG+CAGCACATCACGCACGTCG ((((((((...((((((((+))))))))...)))))))) | 45.3
CGACGTGCAGAATGTGCTG+CAGCACATCCTGCACGTCG ((((((((((.((((((((+)))))))).)))))))))) | 57.4
CGACGTGCCGTATGTGCTG+CAGCACATTTTGCACGTCG ((((((((...((((((((+))))))))...)))))))) | 47.5
CGACGTGCTACATGTGCTG+CAGCACATGCCGCACGTCG ((((((((..(((((((((+)))))))))..)))))))) | 52.3
CGACGTGCATAATGTGCTG+CAGCACATCGAGCACGTCG ((((((((...((((((((+))))))))...)))))))) | 48.5
CGACGTGCTAAATGTGCTG+CAGCACATTCCGCACGTCG ((((((((..(((((((((+)))))))))..)))))))) | 50.1
CGACGTGCCCAATGTGCTG+CAGCACATGTCGCACGTCG ((((((((...((((((((+))))))))...)))))))) | 49.5
CGACGTGCTGTATGTGCTG+CAGCACATCCGGCACGTCG ((((((((.(.((((((((+)))))))).).)))))))) | 52.8
CGACGTGCAATATGTGCTG+CAGCACATGGCGCACGTCG ((((((((...((((((((+))))))))...)))))))) | 50.5
CGACGTGCCAAATGTGCTG+CAGCACATAGGGCACGTCG (((((((((..((((((((+))))))))..))))))))) | 54.6
